Reference: article PMC4157451 (Acta Crystallographica Section D: Biological Crystallography, 2014)

B1: PvuRts1I Y210F mutant (enzyme, UniProt Q52612 1-293, looked up)
chain: MSKTDYILRALSKISHKRWEHYIINRVVHTLDDPDIEFVCQQCIRKEGHLGKIYLADLLFPQLNLYLEIDEAHHDSNDARKADAVRRLDIVEATGFQEERIPASNITLSEVNKLVDEFVRLVKDKKEELENQGLFFRWDYDERYSAKKHINTGYMAVGPNSVFRYHRDALQCFGYRREGHHQSGGWALPAEVAQSIGLTGRVMVWFPRLFEAGEWKNALSADGNKITEQSLNATRNYQETWDYRIVMAHSRDELNRTLYRFLGVFAIDVDKSSDEVKVFSRVYSRVNVYRSQN
notes: PvuRts1I with a point mutation; also called Y210F variant; source: E. coli Rosetta2 (DE3), purified under identical conditions to wild-type PvuRts1I
B2: PvuRts1I E228K mutant (enzyme, UniProt Q52612 1-293, looked up)
chain: MSKTDYILRALSKISHKRWEHYIINRVVHTLDDPDIEFVCQQCIRKEGHLGKIYLADLLFPQLNLYLEIDEAHHDSNDARKADAVRRLDIVEATGFQEERIPASNITLSEVNKLVDEFVRLVKDKKEELENQGLFFRWDYDERYSAKKHINTGYMAVGPNSVFRYHRDALQCFGYRREGHHQSGGWALPAEVAQSIGLTGRVMVWFPRLYEAGEWKNALSADGNKITKQSLNATRNYQETWDYRIVMAHSRDELNRTLYRFLGVFAIDVDKSSDEVKVFSRVYSRVNVYRSQN
notes: PvuRts1I with a point mutation; source: E. coli Rosetta2 (DE3), purified under identical conditions to wild-type PvuRts1I
B3: PvuRts1I A212N mutant (enzyme, UniProt Q52612 1-293, looked up)
chain: MSKTDYILRALSKISHKRWEHYIINRVVHTLDDPDIEFVCQQCIRKEGHLGKIYLADLLFPQLNLYLEIDEAHHDSNDARKADAVRRLDIVEATGFQEERIPASNITLSEVNKLVDEFVRLVKDKKEELENQGLFFRWDYDERYSAKKHINTGYMAVGPNSVFRYHRDALQCFGYRREGHHQSGGWALPAEVAQSIGLTGRVMVWFPRLYENGEWKNALSADGNKITEQSLNATRNYQETWDYRIVMAHSRDELNRTLYRFLGVFAIDVDKSSDEVKVFSRVYSRVNVYRSQN
notes: as for B2
B4: PvuRts1I W215A mutant (enzyme, UniProt Q52612 1-293, looked up)
chain: MSKTDYILRALSKISHKRWEHYIINRVVHTLDDPDIEFVCQQCIRKEGHLGKIYLADLLFPQLNLYLEIDEAHHDSNDARKADAVRRLDIVEATGFQEERIPASNITLSEVNKLVDEFVRLVKDKKEELENQGLFFRWDYDERYSAKKHINTGYMAVGPNSVFRYHRDALQCFGYRREGHHQSGGWALPAEVAQSIGLTGRVMVWFPRLYEAGEAKNALSADGNKITEQSLNATRNYQETWDYRIVMAHSRDELNRTLYRFLGVFAIDVDKSSDEVKVFSRVYSRVNVYRSQN
notes: as for B2
B5: PvuRts1I N217K mutant (enzyme, UniProt Q52612 1-293, looked up)
chain: MSKTDYILRALSKISHKRWEHYIINRVVHTLDDPDIEFVCQQCIRKEGHLGKIYLADLLFPQLNLYLEIDEAHHDSNDARKADAVRRLDIVEATGFQEERIPASNITLSEVNKLVDEFVRLVKDKKEELENQGLFFRWDYDERYSAKKHINTGYMAVGPNSVFRYHRDALQCFGYRREGHHQSGGWALPAEVAQSIGLTGRVMVWFPRLYEAGEWKKALSADGNKITEQSLNATRNYQETWDYRIVMAHSRDELNRTLYRFLGVFAIDVDKSSDEVKVFSRVYSRVNVYRSQN
notes: as for B2
B6: PvuRts1I N217D mutant (enzyme, UniProt Q52612 1-293, looked up)
chain: MSKTDYILRALSKISHKRWEHYIINRVVHTLDDPDIEFVCQQCIRKEGHLGKIYLADLLFPQLNLYLEIDEAHHDSNDARKADAVRRLDIVEATGFQEERIPASNITLSEVNKLVDEFVRLVKDKKEELENQGLFFRWDYDERYSAKKHINTGYMAVGPNSVFRYHRDALQCFGYRREGHHQSGGWALPAEVAQSIGLTGRVMVWFPRLYEAGEWKDALSADGNKITEQSLNATRNYQETWDYRIVMAHSRDELNRTLYRFLGVFAIDVDKSSDEVKVFSRVYSRVNVYRSQN
notes: as for B2
B7: PvuRts1I N217A mutant (enzyme, UniProt Q52612 1-293, looked up)
chain: MSKTDYILRALSKISHKRWEHYIINRVVHTLDDPDIEFVCQQCIRKEGHLGKIYLADLLFPQLNLYLEIDEAHHDSNDARKADAVRRLDIVEATGFQEERIPASNITLSEVNKLVDEFVRLVKDKKEELENQGLFFRWDYDERYSAKKHINTGYMAVGPNSVFRYHRDALQCFGYRREGHHQSGGWALPAEVAQSIGLTGRVMVWFPRLYEAGEWKAALSADGNKITEQSLNATRNYQETWDYRIVMAHSRDELNRTLYRFLGVFAIDVDKSSDEVKVFSRVYSRVNVYRSQN
notes: as for B2

Biological target: the molecule itself
Assay: not stated; assembly of the purified point mutants in solution (Supplementary Fig. S3)

Row | Protein | stoichiometry N
1 | B1 | 2
2 | B2 | 2
3 | B3 | 2
4 | B4 | 2
5 | B5 | 2
6 | B6 | 2
7 | B7 | 2
